Assay results taken from PMC4155688, “Mapping the Putative G Protein-coupled Receptor (GPCR) Docking Site on GPCR Kinase 2” (The Journal of Biological Chemistry, 2014).

B1: RlucII-GRK2 (wild type) [human] / α2AAR-GFP^2 [not stated] (parent)
chain 1: MADLEAVLADVSYLMAMEKSKATPAARASKKILLPEPSIRSVMQKYLEDRGEVTFEKIFSQKLGYLLFRDFCLNHLEEARPLVEFYEEIKKYEKLETEEERVARSREIFDSYIMKELLACSHPFSKSATEHVQGHLGKKQVPPDLFQPYIEEICQNLRGDVFQKFIESDKFTRFCQWKNVELNIHLTMNDFSVHRIIGRGGFGEVYGCRKADTGKMYAMKCLDKKRIKMKQGETLALNERIMLSLVSTGDCPFIVCMSYAFHTPDKLSFILDLMNGGDLHYHLSQHGVFSEADMRFYAAEIILGLEHMHNRFVVYRDLKPANILLDEHGHVRISDLGLACDFSKKKPHASVGTHGYMAPEVLQKGVAYDSSADWFSLGCMLFKLLRGHSPFRQHKTKDKHEIDRMTLTMAVELPDSFSPELRSLLEGLLQRDVNRRLGCLGRGAQEVKESPFFRSLDWQMVFLQKYPPPLIPPRGEVNAADAFDIGSFDEEDTKGIKLLDSDQELYRNFPLTISERWQQEVAETVFDTINAETDRLEARKKAKNKQLGHEEDYALGKDCIMHGYMSKMGNPFLTQWQRRYFYLFPNRLEWRGEGEAPQSLLTMEEIQSVEETQIKERKCLLLKIRGGKQFILQCDSDPELVQWKKELRDAYREAQQLVQRVPKMKNKPRSPVVELSKVPLVQRGSANGL
chain 2: MFRQEQPLAEGSFAPMGSLQPDAGNASWNGTEAPGGGARATPYSLQVTLTLVCLAGLLMLLTVFGNVLVIIAVFTSRALKAPQNLFLVSLASADILVATLVIPFSLANEVMGYWYFGKAWCEIYLALDVLFCTSSIVHLCAISLDRYWSITQAIEYNLKRTPRRIKAIIITVWVISAVISFPPLISIEKKGGGGGPQPAEPRCEINDQKWYVISSCIGSFFAPCLIMILVYVRIYQIAKRRTRVPPSRRGPDAVAAPPGGTERRPNGLGPERSAGPGGAEAEPLPTQLNGAPGEPAPAGPRDTDALDLEESSSSDHAERPPGPRRPERGPRGKGKARASQVKPGDSLPRRGPGATGIGTPAAGPGEERVGAAKASRWRGRQNREKRFTFVLAVVIGVFVVCWFPFFFTYTLTAVGCSVPRTLFKFFFWFGYCNSSLNPVIYTIFNHDFRRAFKKILCRGDRKRIV

Variants of: B1
Experiment: BRET
Details: with α2AAR-GFP^2; HEK293T cells; 100 μm NOR for 6 min; read off a plot

Variant | response
chain 1 A482I | 0.059
chain 1 D3A | 0.026
chain 1 D10A | 0.026
chain 1 D10R | 0.041
chain 1 D481A | 0.049
chain 1 E18A | 0.05
chain 1 G475I | 0.016
chain 1 I485A | 0.018
chain 1 K220R | 0.032
chain 1 M15A | 0.027
chain 1 P473E | 0.033

Variants of: B1
Experiment: BRET dose-response
Details: with α2AAR-GFP^2; HEK293T cells; point at highest NOR concentration, log [NOR] = -3; read off a plot

Variant | response
chain 1 K220R | 0.031
